Assay results published in patent US20250230251A1.

Target: extracellular matrix (ECM) proteins
Assay: ECM (Matrigel) ELISA, 1 µM antibody

ECM score | Substance
24.2 | high control mAb (antibody)
1.1 | low control mAb (antibody)
